In paper PMC3576809 one finds fold of importin α retrieved from stage 3 extracts against stage 8 extracts data, which are given here for 1 substance.

The test addresses recombinant full-length kif2a, MBP fusion protein (Xenopus) (UniProt Q91637). As to the kind of experiment: pull-down; 1 µM MBP-kif2a added to stage 3 embryo cytoplasmic extract for 15 min, retrieved on amylose resin (15 min), washed with PBS with 0.01% Tween; importin α immunoblot quantified, normalized to kif2a intensity. (In general: A western blot detects proteins with antibodies after separation by electrophoresis.)
UniProt Q91637, sequence (Q91637 whole entry, the tested form may be a part): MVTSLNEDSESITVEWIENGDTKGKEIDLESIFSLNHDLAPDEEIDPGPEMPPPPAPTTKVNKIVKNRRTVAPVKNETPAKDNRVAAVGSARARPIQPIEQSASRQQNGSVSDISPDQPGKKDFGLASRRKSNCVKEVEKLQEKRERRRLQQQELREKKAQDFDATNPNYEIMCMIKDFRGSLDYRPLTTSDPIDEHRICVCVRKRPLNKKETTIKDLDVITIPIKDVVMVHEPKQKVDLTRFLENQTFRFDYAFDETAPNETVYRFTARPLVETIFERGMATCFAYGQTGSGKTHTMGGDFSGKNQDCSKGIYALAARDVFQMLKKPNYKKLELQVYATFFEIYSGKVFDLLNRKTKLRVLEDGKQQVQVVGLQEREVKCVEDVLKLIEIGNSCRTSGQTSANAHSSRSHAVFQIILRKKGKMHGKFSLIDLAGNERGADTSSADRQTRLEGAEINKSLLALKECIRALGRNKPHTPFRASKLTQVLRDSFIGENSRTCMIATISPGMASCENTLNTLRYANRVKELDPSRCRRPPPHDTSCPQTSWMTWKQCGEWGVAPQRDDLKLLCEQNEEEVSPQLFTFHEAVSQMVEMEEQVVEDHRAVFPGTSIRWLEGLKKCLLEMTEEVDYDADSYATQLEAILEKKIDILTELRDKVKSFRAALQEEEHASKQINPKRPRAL

As to “importin α (endogenous, Xenopus laevis egg and embryo extracts) (natural protein)”, the fold of importin α retrieved from stage 3 extracts against stage 8 extracts stood at 10 fold.
